The values that follow come from US20080194701A1, “Bifunctional Enzyme with Y-Glutamylcysteine Synthetase and Glutathione Synthetase Activity and Uses Thereof” (priority 2004, published 2008).

The Kd is the concentration at which binding is half-saturated. Usually Ki stands for the dissociation constant of the complex between target and ligand, obtained from inhibition or displacement. In general, kinact refers to the maximal first-order rate at which the target is inactivated.

Data set [1] deals with S. agalactiae γ-glutamylcysteine synthetase-glutathione synthetase (γ-GCS-GS) with an N-terminal His8-tag (Streptococcus agalactiae) (UniProt Q8DXM9). As to the kind of experiment: cell-based or functional assay.
In data set [2] the target is T1, S. agalactiae γ-GCS-GS (Streptococcus agalactiae serotype V, UniProt Q8DXM9).
T1 sequence (Q8DXM9 1-750): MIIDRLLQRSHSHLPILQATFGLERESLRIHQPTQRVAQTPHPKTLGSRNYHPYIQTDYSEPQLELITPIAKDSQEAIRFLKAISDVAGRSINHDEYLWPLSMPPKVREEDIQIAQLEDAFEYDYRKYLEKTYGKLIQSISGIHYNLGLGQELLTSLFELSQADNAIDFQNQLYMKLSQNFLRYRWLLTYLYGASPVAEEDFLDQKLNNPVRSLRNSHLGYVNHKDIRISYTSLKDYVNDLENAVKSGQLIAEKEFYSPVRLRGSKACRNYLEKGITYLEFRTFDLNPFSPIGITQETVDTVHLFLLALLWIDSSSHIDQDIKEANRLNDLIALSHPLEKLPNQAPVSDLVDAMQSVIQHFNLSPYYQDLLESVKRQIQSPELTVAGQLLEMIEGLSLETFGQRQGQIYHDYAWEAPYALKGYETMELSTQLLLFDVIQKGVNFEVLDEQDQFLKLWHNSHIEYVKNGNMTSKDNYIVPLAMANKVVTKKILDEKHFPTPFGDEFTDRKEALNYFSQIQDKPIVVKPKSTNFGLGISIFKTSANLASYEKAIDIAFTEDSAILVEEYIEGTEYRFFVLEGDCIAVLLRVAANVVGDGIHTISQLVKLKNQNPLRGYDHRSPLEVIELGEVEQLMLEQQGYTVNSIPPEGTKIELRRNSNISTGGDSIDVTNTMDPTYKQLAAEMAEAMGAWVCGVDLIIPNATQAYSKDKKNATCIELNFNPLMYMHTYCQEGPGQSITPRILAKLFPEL
As to the kind of experiment: γ-GCS activity assay based on ADP formation, S. agalactiae γ-GCS-GS. The class given is biochemical. Also noted: corresponded to full-length S. agalactiae γ-GCS-GS with an N-terminal His8-tag; made in house; host or cells: E. coli SG13009 with pQE30-gshAB plus pREP4 or pRARE. The procedure:
In Table 1, a unit was defined as the amount of enzyme activity required to catalyze the formation of 1 μmol of product per hour. Specific activity was shown as units per mg protein. Activity was determined at 37° C. based on ADP formation in reaction mixtures containing L-glutamate and L-cysteine and using pyruvate kinase and lactate dehydrogenase to couple ADP formation to NADH oxidation, which was monitored at 340 nm.
Exp. Purif. 13, 268-276 (1998).
At set time points ranging from one to 30 minutes, 5 μl aliquots were removed and assayed for residual enzyme activity using the standard γ-GCS assay based on ADP formation.

The test system of data set [3] is urinary tract infection caused by E. faecalis. As to the kind of experiment: Treatment of urinary tract infection in a patient. The class given is in vivo, human. An excerpt:
A person weighing 50 kg presents to their physician with a urinary tract infection caused by E. faecalis. […] Two months later they return with a recurrence of the urinary tract infection due to E. faecalis.

For data set [4], the system named is vaginal colonization with S. agalactiae (Group B Streptococcus). To be noted: one 500 mg capsule by mouth every 6 hours from 2 days before due date. An excerpt:
A person who is allergic to penicillin is seen for prenatal screening prior to delivery of their first child.

The target in data set [5] is E. coli γ-GCS (Escherichia coli, UniProt P0A6W9). As to conditions: cited from earlier work.
Chain of E. coli γ-GCS (P0A6W9 whole entry): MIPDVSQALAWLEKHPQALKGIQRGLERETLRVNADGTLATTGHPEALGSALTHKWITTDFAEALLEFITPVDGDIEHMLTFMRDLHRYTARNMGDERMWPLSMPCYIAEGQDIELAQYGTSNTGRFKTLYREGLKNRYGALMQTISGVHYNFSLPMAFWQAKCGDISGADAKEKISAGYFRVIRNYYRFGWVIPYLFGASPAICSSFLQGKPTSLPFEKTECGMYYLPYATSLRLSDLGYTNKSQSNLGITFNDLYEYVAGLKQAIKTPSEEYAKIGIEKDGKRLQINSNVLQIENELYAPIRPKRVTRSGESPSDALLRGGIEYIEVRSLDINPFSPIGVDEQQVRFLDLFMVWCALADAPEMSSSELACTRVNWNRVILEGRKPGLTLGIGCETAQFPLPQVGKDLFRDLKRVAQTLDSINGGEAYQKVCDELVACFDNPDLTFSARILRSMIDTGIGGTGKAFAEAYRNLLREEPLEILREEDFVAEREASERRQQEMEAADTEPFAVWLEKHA
Data set [6] concerns the target T2, Human γ-GCS (Homo sapiens, UniProt P48506).
T2 sequence (P48506 1-637): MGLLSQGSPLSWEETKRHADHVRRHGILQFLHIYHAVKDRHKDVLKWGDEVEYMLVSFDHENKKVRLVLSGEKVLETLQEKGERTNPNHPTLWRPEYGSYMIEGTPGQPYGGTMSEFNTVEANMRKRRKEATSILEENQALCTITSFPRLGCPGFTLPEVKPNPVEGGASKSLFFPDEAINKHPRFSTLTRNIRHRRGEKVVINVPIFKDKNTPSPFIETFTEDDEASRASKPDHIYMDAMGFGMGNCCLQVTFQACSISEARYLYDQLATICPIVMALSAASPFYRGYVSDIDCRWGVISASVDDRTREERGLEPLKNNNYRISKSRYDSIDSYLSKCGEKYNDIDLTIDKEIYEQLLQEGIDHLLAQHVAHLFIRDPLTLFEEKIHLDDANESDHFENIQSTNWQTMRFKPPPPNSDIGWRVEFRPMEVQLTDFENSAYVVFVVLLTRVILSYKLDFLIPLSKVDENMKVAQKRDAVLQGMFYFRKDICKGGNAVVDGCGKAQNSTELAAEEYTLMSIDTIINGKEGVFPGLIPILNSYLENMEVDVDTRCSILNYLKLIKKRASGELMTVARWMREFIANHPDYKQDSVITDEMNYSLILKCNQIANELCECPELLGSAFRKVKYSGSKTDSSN
T2 sequence (P48507 1-274 partner): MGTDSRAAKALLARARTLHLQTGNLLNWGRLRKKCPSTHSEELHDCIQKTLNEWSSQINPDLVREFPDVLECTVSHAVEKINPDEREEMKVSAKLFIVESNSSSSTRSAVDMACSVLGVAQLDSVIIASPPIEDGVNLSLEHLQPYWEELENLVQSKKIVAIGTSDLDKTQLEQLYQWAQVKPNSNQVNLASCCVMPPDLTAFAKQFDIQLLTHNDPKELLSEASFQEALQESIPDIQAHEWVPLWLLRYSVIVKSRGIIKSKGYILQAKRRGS
To be noted: cited from earlier work.

Data set [7] has as its system N[C@@H](CCC(=O)N[C@@H](CS)C(=O)O)C(=O)O. As to the kind of experiment: purified protein, by the assay type. To be noted: other: substrate Km, GS activity.
Data set [8] deals with N[C@@H](CS)C(=O)O. As to the kind of experiment: purified protein, by the assay type. As to conditions: other: substrate Km, γ-GCS activity.
Data set [9] deals with T3, E. faecalis γ-GCS-GS (Enterococcus faecalis, UniProt Q82ZG8). As to the kind of experiment: γ-GCS activity of E. faecalis γ-GCS-GS.
The target in data set [10] is T3, E. faecalis γ-GCS-GS. As to the kind of experiment: GS activity of E. faecalis γ-GCS-GS. To be noted: purified enzyme.
Substrate in data set [11]: N[C@@H](CCC(=O)N[C@@H](CS)C(=O)O)C(=O)O
As to the kind of experiment: cells, lysate or membranes named. To be noted: other: substrate Km, GS activity; pH 7.4.

Substrate in data set [12]: NCC(=O)O
As to the kind of experiment: cells, lysate or membranes named. As to conditions: other: substrate Km, GS activity; pH 7.4.

Substrate in data set [13]: CC[C@H](N)C(=O)OC(=O)CC[C@H](N)C(=O)O
As to the kind of experiment: cells, lysate or membranes named. To be noted: other: substrate Km, GS activity; pH 7.4.

Substrate in data set [14]: N[C@@H](CS)C(=O)O
Briefly: γ-GCS activity assay based on ADP formation, S. agalactiae γ-GCS-GS. The format is biochemical, Streptococcus agalactiae. As to conditions: other: substrate Km, pH 8.2, 37.0 °C.

On to “Glutathione (L-γ-glutamyl-L-cysteinylglycine) (peptide)”, for which, in data set [1], the inhibition of γ-GCS activity is < 5%.
On to `CCCC[S@](=N)(=O)CC[C@H](N)C(=O)O` [L-S—BSO, L-buthionine-S-sulfoximine, reference compound], for which the Kd was 2800 ± 300 µM in [2], 66 µM in data set [5] and 25 µM in [6]. Besides, the Ki was 4900 ± 200 µM in data set [2], 66 µM in [5] and 25 µM in data set [6]. Also, the values for the kinact in [2], in data set [5] and in data set [6] were 0.00217 s⁻¹, ~0.30 min⁻¹ and 3.9 min⁻¹, respectively. Also, the outcome of infection in data set [3] (one 500 mg capsule by mouth every 6 hours for two days) is recorded as “without resolution of the infection”; in [3] (two 500 mg capsules every 6 hours, fourth day), “urine is free of detectable bacteria”. For the same molecule, the outcome of colonization in data set [4] was “no S. agalactiae bacteria are detected”. The t1/2 in data set [5] (half-life for inactivation) was 2.3 min; in [6] (half-life for inactivation), 0.183 min.
As to “E. faecalis γ-GCS-GS (Enterococcus faecalis V583)”, the values for the Km in [7] and in data set [8] were 4300 ± 50 µM and 192 ± 14 µM, respectively.
On to “S. mutans γ-GCS-GS (Streptococcus mutans UA159)”, for which, in data set [8], the Km was 144 ± 4 µM.

B1: E. faecalis γ-GCS-GS: bifunctional γ-GCS-GS enzyme of E. faecalis (gshAB, EF3089; SEQ ID NO:12) expressed in E. coli (protein, listed as Enterococcus faecalis)
chain: MNYRELMQKKNVRPYVLMARFGLEKENQRSTREGLLATTEHPTVFGNRSYHPYIQTDFSETQLELITPVANSGTEMLRFLDAIHDVARRSIPEDEMLWPLSMPPQLPTKDEEIKIAKLDQYDAVLYRRYLAKEYGKRKQMVSGIHFNFEYDQALIQQLYDEQSEVTDCKQFKTKVYMKVARNFLRYRWLITYLFGASPVSEDRYFRVYDDQPQEPVRSIRNSTYGYRNHDNVKVSYASLERYLEDIHRMVENGLLSEEKEFYAPVRLRGGKQMSDLPKTGIRYIELRNLDLNPFSRLGIVEDTVDFLHYFMLYLLWTDEKEEADEWVKTGDIFNEQVALGHPHETIKLIAEGDRIFSEMIDMLDALGIRKGKEVVGKYYQQLRNPQDTVSGKMWTIIQENSNSELGNIFGNQYQSMAFERPYQLAGFREMELSTQIFLFDAIQKGLEIEILDEQEQFLKLQHGEHIEYVKNANMTSKDNYVVPLIMENKTVTKKILSAAGFHVPGGEEFSSFIEAQEAHLRYANKAFVVKPKSTNYGLGITIFKEGASLEDFTEALRIAFKEDTAVLIEEFLPGTEYRFFVLDNDVKAIMLRVPANVTGDGKHTVEELVAAKNSDPLRGTNHRAPLELIQLNDLEKLMLKEQGLTIYSVPEKEQIVYLRENSNVSTGGDSIDMTDVIDDSYKQIAIEAVAALGAKICGIDLIIPDKDVKGTRDSLTYGIIEANFNPAMHMHVYPYAGQGRRLTMDVLKLLYPEVVQ
As for B1, the “ratio of activities (γ-GCS to GS)” value in data set [9] was “about 0.23”. The same molecule displayed a γ-GCS specific activity in [9] (purified enzyme) of 240 units/mg. In [10], this molecule came in with a GS specific activity of 2297 units/mg.

B2: S. agalactiae γ-GCS-GS (Streptococcus agalactiae 2603V/R) (protein)
chain: T1 sequence (Q8DXM9 1-750)
notes: corresponded to full-length S. agalactiae γ-GCS-GS with an N-terminal His8-tag; made in house; host or cells: E. coli SG13009 with pQE30-gshAB plus pREP4 or pRARE
On to B2, for which the Km in data set [11] worked out at 3.9 ± 0.5 mM mM; in data set [12], 6 ± 0.5 mM mM; in data set [13] it was 11.5 ± 1.5 mM mM; in data set [14], 160 ± 9 μM μM. Further, the Vmax in [11] is reported as 2264 ± 896 units/mg units/mg; in data set [12] it was 2326 ± 584 units/mg; in data set [13] it was 2648 ± 597 units/mg units/mg; in [14], 1126 ± 21 units/mg.
